Experiment [1] concerns the target T1, soluble, wild-type MICA (human, UniProt Q29983 24-299).
T1 chain: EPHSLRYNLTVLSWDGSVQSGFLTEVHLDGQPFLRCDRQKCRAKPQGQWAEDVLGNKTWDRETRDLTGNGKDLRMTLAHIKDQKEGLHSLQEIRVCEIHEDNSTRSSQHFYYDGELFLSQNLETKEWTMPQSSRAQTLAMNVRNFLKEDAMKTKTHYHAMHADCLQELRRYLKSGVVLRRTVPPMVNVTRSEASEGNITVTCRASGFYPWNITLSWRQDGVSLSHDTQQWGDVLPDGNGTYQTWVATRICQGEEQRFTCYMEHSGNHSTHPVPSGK
The experiment can be described thus: SPR. Background: Surface plasmon resonance follows binding to a sensor surface in real time, without labels.

Experiment [2] has as its target T1, soluble, wild-type MICA. The experiment can be described thus: SPR; Two State Reaction model.
The target in experiment [3] is T1, soluble, wild-type MICA. The experiment can be described thus: SPR; 1:1 binding model.

B1: NKG2D^scd (single-chain dimer form of NKG2D) (receptor)
chain: NQEVQIPLTESYCGPCPKNWICYKNNCYQFFDESKNWYESQASCMSQNASLLKVYSKEDQDLLKLVKSYHWMGLVHIPTNGSWQWEDGSILSPNLLTIIEMQKGDCALYASSFKGYIENCSTPNTYICMQRTVQIPLTESYCGPCPKNWICYKNNCYQFFDESKNWYESQASCMSQNASLLKVYSKEDQDLLKLVKSYHWMGLVHIPTNGSWQWEDGSILSPNLLTIIEMQKGDCALYASSFKGYIENCSTPNTYICMQRTV
One may read the Kd as the constant that tells how readily two partners part at equilibrium. As to B1, the dissociation constant Kd in experiment [1] was determined as 13.8 nM.

B2: NKG2D^scd7 (heptamerized single-chain NKG2D dimer, Example 2) (receptor)
chain: GSRSAGAHAGWETPEGCEQVLTGKRLMQCLPNPEDVKMALEVYKLSLEIEQLELQRDSARQSTLDKELNQEVQIPLTESYCGPCPKNWICYKNNCYQFFDESKNWYESQASCMSQNASLLKVYSKEDQDLLKLVKSYHWMGLVHIPTNGSWQWEDGSILSPNLLTIIEMQKGDCALYASSFKGYIENCSTPNTYICMQRTVQIPLTESYCGPCPKNWICYKNNCYQFFDESKNWYESQASCMSQNASLLKVYSKEDQDLLKLVKSYHWMGLVHIPTNGSWQWEDGSILSPNLLTIIEMQKGDCALYASSFKGYIENCSTPNTYICMQRTV
modifications: FITC-conjugated for flow cytometry (two fluorophores per protomer)
Take B2: the equilibrium dissociation constant (Kd) in experiment [1] was 4.6 nM; in experiment [2], 9.72 nM; in experiment [3], 4.6 nM.
